Reference: PMC10586780 (Biochemical Journal, 2023)
Values joined by “and” are separate entries in the source; they are usually repeats but may differ in a detail not shown here. Equal entries are not always repeated.

Target: the molecule itself
Experiment: native gel or EMSA

Row | Protein | stoichiometry N
1 | human platelet phosphofructokinase-1 with the cancer-associated mutation D564N (PFKP-D564N), recombinant (enzyme, UniProt Q01813-1 1-784, looked up) MDADDSRAPKGSLRKFLEHLSGAGKAIGVLTSGGDAQGMNAAVRAVVRMGIYVGAKVYFIYEGYQGMVDGGSNIAEADWESVSSILQVGGTIIGSARCQAFRTREGRLKAACNLLQRGITNLCVIGGDGSLTGANLFRKEWSGLLEELARNGQIDKEAVQKYAYLNVVGMVGSIDNDFCGTDMTIGTDSALHRIIEVVDAIMTTAQSHQRTFVLEVMGRHCGYLALVSALACGADWVFLPESPPEEGWEEQMCVKLSENRARKKRLNIIIVAEGAIDTQNKPITSEKIKELVVTQLGYDTRVTILGHVQRGGTPSAFDRILASRMGVEAVIALLEATPDTPACVVSLNGNHAVRLPLMECVQMTQDVQKAMDERRFQDAVRLRGRSFAGNLNTYKRLAIKLPDDQIPKTNCNVAVINVGAPAAGMNAAVRSAVRVGIADGHRMLAIYDGFDGFAKGQIKEIGWTDVGGWTGQGGSILGTKRVLPGKYLEEIATQMRTHSINALLIIGGFEAYLGLLELSAAREKHEEFCVPMVMVPATVSNNVPGSDFSIGADTALNTITDTCNRIKQSASGTKRRVFIIETMGGYCGYLANMGGLAAGADAAYIFEEPFDIRDLQSNVEHLTEKMKTTIQRGLVLRNESCSENYTTDFIYQLYSEEGKGVFDCRKNVLGHMQQGGAPSPFDRNFGTKISARAMEWITAKLKEARGRGKKFTTDDSICVLGISKRNVIFQPVAELKKQTDFEHRIPKEQWWLKLRPLMKILAKYKASYDVSDSGQLEHVQPWSV | 4
2 | human liver phosphofructokinase-1 (PFKL), wild type, recombinant (enzyme) MAAVDLEKLRASGAGKAIGVLTSGGDAQGMNAAVRAVTRMGIYVGAKVFLIYEGYEGLVEGGENIKQANWLSVSNIIQLGGTIIGSARCKAFTTREGRRAAAYNLVQHGITNLCVIGGDGSLTGANIFRSEWGSLLEELVAEGKISETTARTYSHLNIAGLVGSIDNDFCGTDMTIGTDSALHRIMEVIDAITTTAQSHQRTFVLEVMGRHCGYLALVSALASGADWLFIPEAPPEDGWENFMCERLGETRSRGSRLNIIIIAEGAIDRNGKPISSSYVKDLVVQRLGFDTRVTVLGHVQRGGTPSAFDRILSSKMGMEAVMALLEATPDTPACVVTLSGNQSVRLPLMECVQMTKEVQKAMDDKRFDEATQLRGGSFENNWNIYKLLAHQKPPKEKSNFSLAILNVGAPAAGMNAAVRSAVRTGISHGHTVYVVHDGFEGLAKGQVQEVGWHDVAGWLGRGGSMLGTKRTLPKGQLESIVENIRIYGIHALLVVGGFEAYEGVLQLVEARGRYEELCIVMCVIPATISNNVPGTDFSLGSDTAVNAAMESCDRIKQSASGTKRRVFIVETMGGYCGYLATVTGIAVGADAAYVFEDPFNIHDLKVNVEHMTEKMKTDIQRGLVLRNEKCHDYYTTEFLYNLYSSEGKGVFDCRTNVLGHLQQGGAPTPFDRNYGTKLGVKAMLWLSEKLREVYRKGRVFANAPDSACVIGLKKKAVAFSPVTELKKDTDFEHRMPREQWWLSLRLMLKMLAQYRISMAAYVSGELEHVTRRTLSMDKGF | 4 and > 4
3 | human liver phosphofructokinase-1 with the cancer-associated mutation D553N (PFKL-D553N), recombinant (enzyme) MAAVDLEKLRASGAGKAIGVLTSGGDAQGMNAAVRAVTRMGIYVGAKVFLIYEGYEGLVEGGENIKQANWLSVSNIIQLGGTIIGSARCKAFTTREGRRAAAYNLVQHGITNLCVIGGDGSLTGANIFRSEWGSLLEELVAEGKISETTARTYSHLNIAGLVGSIDNDFCGTDMTIGTDSALHRIMEVIDAITTTAQSHQRTFVLEVMGRHCGYLALVSALASGADWLFIPEAPPEDGWENFMCERLGETRSRGSRLNIIIIAEGAIDRNGKPISSSYVKDLVVQRLGFDTRVTVLGHVQRGGTPSAFDRILSSKMGMEAVMALLEATPDTPACVVTLSGNQSVRLPLMECVQMTKEVQKAMDDKRFDEATQLRGGSFENNWNIYKLLAHQKPPKEKSNFSLAILNVGAPAAGMNAAVRSAVRTGISHGHTVYVVHDGFEGLAKGQVQEVGWHDVAGWLGRGGSMLGTKRTLPKGQLESIVENIRIYGIHALLVVGGFEAYEGVLQLVEARGRYEELCIVMCVIPATISNNVPGTDFSLGSDTAVNAAMESCNRIKQSASGTKRRVFIVETMGGYCGYLATVTGIAVGADAAYVFEDPFNIHDLKVNVEHMTEKMKTDIQRGLVLRNEKCHDYYTTEFLYNLYSSEGKGVFDCRTNVLGHLQQGGAPTPFDRNYGTKLGVKAMLWLSEKLREVYRKGRVFANAPDSACVIGLKKKAVAFSPVTELKKDTDFEHRMPREQWWLSLRLMLKMLAQYRISMAAYVSGELEHVTRRTLSMDKGF | 4
